# In article PMC3347520, “Relative Comparison of Catalytic Characteristics of Human Foamy Virus and HIV-1 Integrases”:
# B1: U5-HFV duplex (U5B-HFV/U5A-HFV) (dsDNA)
# DNA 1: ATACAAAATTCCATGACAAT
# DNA 2: ATTGTCATGGAATTTTGTAT
# Target: HFV integrase (HFV IN) (Human foamy virus, UniProt P14350 752-1143)
# Experiment: EMSA; 5 mM Mg2+
# Conditions: protein: recombinant; chain copies: 4; blunt
binder,measurement,value
B1,Kd,17.3 nM
